Assays:
[1] = target: T1, human LRP6 (low density lipoprotein receptor-related protein 6), full length on HEK293 cells (human, UniProt O75581 20-1613); assay: cell-based or functional assay
[2] = target: T2, LRP6 double mutant (K662A/K684A) on HEK293 cells (human, UniProt O75581 20-1613); assay: flow cytometry on transfected HEK293 cells
T2 construct: whole, on cells; Made by site-directed mutagenesis of the LRP6 construct in pCMV-Entry and transfected into HEK293 cells
Description: FIG. 1F is a graph showing fine epitope mapping by alanine scanning of LRP6 and the effect of the alanine substitutions on binding of the 66 antibody. LRP6 single mutants and the double mutant (K662A/K684A) were separately transfected into HEK293 cells. An anti-LRP6 scFv-Fc fusion that binds to the LRP6-P1 domain was used as a control to confirm cell surface expression of LRP6. Binding of the 66 antibody was determined by flow cytometry, and median fluorescence intensity (MFI) values were normalized against MFI of the P1-binding scFv-Fc.
To map the binding site further, the binding of the 66 antibody to LRP6 was modeled using a homology modeling-predicted structure for the 66 Fv and two known crystal structures of LRP6 (3S8Z and 4A0P: FIGS. 8A and 8B, respectively). Several potential 66 contact sites were identified on LRP6. Alanine scan mutagenesis was performed at those sites. Alanine mutants of LRP6 ectodomain were constructed using QuikChange Site-Directed Mutagenesis Kit (Agilent Technologies) according to the manufacturer's protocol. Binding of the 66 IgG to these LRP6 mutants was analyzed by flow cytometry. K662A and K684A single mutations caused a significant loss of 66 binding (FIG. 1F).

[3] = target: T1, human LRP6 (low density lipoprotein …); assay: flow cytometry titration of 66 IgG on HEK293 cells
Description: (§1) HEK293 cells were transfected with LRP6 expression plasmid and incubated with 66 or E34N19 scFv-phage for 1 hour. E34N19 was identified previously as a Wnt antagonist binding to the P3E3P4E4 domain (Lee et al., 2018). The E34N19 IgG was simultaneously added as a competitor. Bound phages were detected by sequential incubation of mouse anti-fd IgG and PE-labeled anti-mouse IgG. FIG. 7A is a graph showing the dissociation curve of the 66 antibody. HEK293 cells were incubated with varying concentrations of 66 IgG, and the binding was analyzed by flow cytometry. […] As a positive control, the E34N19E IgG competes with the E34N19E scFv-phage.
(§2) The apparent KD of antibodies was analyzed by FACS as described (Lee et al., 2018). Briefly, cells were trypsinized, washed, and resuspended in FACS buffer (PBS, 1% FBS). Antibodies serially diluted in FACS buffer were incubated with target cells (3×10⁵ cells/tube) overnight at 4° C. Cells were washed, incubated with Alexa Fluor® 647-labeled goat anti-human IgG (Jackson ImmunoResearch). 1 hour post incubation, cells were washed in PBS and analyzed using a BD Accuri C6 flow cytometer (BD Biosciences). Median Fluorescence Intensity (MFI) values were analyzed by curve fitting (GraphPad) to determine the affinity.

[4] = target: T3, recombinant mouse LRP6 extracellular domain (mouse, UniProt O88572 20-1370); assay: ELISA on recombinant mouse LRP6 extracellular domain
T3 construct: extracellular domain; also called mouse LRP6 ectodomain
T3 sequence (looked up): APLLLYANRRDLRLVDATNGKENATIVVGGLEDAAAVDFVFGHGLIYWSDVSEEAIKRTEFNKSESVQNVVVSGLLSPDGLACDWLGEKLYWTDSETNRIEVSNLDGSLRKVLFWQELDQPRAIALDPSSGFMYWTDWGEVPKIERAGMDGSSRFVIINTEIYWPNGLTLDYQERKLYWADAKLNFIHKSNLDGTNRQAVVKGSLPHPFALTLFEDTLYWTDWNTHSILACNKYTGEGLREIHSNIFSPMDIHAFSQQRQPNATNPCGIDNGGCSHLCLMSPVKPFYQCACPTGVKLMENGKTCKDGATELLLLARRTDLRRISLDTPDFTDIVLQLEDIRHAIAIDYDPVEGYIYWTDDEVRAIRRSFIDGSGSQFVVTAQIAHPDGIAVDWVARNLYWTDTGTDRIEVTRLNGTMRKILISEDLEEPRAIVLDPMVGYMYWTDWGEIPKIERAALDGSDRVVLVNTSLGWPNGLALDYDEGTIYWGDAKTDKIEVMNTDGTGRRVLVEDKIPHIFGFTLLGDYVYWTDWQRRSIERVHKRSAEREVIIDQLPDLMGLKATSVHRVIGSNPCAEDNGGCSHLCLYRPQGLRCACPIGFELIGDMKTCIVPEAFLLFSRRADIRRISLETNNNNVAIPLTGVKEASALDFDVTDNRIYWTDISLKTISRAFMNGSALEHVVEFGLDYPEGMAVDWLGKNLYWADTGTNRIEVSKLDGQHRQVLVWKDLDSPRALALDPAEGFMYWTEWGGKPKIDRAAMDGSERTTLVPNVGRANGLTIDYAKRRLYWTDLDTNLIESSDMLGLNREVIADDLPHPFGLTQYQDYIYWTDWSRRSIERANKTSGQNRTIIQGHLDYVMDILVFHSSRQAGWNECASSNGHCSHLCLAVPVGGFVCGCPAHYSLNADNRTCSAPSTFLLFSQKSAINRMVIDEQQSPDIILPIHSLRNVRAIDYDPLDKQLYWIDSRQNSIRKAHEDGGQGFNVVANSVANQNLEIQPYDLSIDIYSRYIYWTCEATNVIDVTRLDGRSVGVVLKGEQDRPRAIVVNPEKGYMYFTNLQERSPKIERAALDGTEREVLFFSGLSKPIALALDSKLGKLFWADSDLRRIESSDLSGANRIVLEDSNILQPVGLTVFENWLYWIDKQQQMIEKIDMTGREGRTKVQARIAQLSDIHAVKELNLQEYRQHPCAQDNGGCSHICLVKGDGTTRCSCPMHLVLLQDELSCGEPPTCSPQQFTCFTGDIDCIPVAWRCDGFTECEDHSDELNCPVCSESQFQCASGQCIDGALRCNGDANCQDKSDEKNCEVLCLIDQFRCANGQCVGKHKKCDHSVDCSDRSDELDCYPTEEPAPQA

[5] = target: T1, human LRP6 (low density lipoprotein …); assay: flow cytometry on HEK293 cells; apparent KD by curve fitting of MFI
Description: as §1, §2

EC50, STF reporter on HEK293 cells without Wnt ligands [1]: 13.4 nM
EC50, Wnt1-mediated beta-catenin signaling (STF reporter) with RSPO2 (5 nM) [1]: 1.8 nM
EC50, Wnt3a-mediated beta-catenin signaling (STF reporter) with RSPO2 (5 nM) [1]: 4.8 nM
binding result [2]: no binding
EC50 (read off the curve) [3]: ~5 nM
binding result [4]: binds
Kd [5]: ~5 nM
B1: 66 IgG (Wnt-agonist human monoclonal antibody 66) (antibody, V domains shown)
VH: QVQLLQSGGGLVQPGGSLRLSCAASGFTFSTYAMSWVRQAPGKGLEWVSTIGPSGSSTYYAYADSVKGRFTISRDNYKNMLYLQMNSLRAEDTAVYYCAKEGPNSGYFDFDYWGQGTLVTVSS
VL: EIVLTQSPSSLSASVGDRVTITCRASQSISTYLNWYQQKPGKAPKVLIYAASSLQSGVPSRISGSGSGTDFTLTISSLQPEDFATYYCQQSYSIPLTFGGGTKLEIK
notes: also called 66 antibody; agonist 66 IgG
